These results are taken from paper PMC8582077.

In data set [1] the target is MERS-CoV Spike S1 protein (Middle East respiratory syndrome …, UniProt K9N5Q8 18-751). Description: bead-based fluorescence binding assay.
The target of another data set is myoglobin (horse, UniProt P68082 2-154). Description: EMSA. (A gel shift assay detects complexes by their altered migration in electrophoresis.)

As a reminder, the Kd is the concentration at which binding is half-saturated. A low value points to higher affinity.

Chain of MERS-CoV Spike S1 protein (K9N5Q8 18-751): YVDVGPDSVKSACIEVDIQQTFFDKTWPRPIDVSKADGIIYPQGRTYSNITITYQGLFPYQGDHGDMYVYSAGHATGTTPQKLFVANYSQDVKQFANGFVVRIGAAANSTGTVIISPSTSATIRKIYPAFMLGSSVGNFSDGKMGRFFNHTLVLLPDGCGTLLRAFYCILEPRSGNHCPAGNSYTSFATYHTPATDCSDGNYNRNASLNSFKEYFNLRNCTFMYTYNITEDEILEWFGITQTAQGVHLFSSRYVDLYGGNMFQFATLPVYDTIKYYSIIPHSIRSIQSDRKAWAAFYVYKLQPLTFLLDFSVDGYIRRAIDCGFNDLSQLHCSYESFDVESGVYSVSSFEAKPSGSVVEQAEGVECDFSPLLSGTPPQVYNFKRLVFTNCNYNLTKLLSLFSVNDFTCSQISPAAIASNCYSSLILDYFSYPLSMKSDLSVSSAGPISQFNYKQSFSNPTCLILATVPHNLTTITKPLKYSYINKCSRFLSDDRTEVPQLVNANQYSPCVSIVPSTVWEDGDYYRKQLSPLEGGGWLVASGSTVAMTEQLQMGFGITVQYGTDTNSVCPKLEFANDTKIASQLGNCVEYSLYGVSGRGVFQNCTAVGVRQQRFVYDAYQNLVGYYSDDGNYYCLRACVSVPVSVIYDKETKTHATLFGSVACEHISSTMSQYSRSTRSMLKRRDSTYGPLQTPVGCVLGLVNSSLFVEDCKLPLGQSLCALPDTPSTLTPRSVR
Chain of myoglobin (P68082 2-154): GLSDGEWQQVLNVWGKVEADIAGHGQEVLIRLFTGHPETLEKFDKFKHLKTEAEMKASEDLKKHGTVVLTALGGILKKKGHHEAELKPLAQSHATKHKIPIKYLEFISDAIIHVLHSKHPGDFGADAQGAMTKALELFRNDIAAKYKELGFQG

B1: S-12 aptamer (MERS aptamer-b) (ssDNA)
DNA: TGACACCGTACCTGCTCTCCGACCCATCTAGCACTTCACACACGCCCGATCGGATTAGTAAGCACGCCAAGGGACTAT
In data set [1], B1 showed a Kd of 287 ± 17.7 nM.

B2: S-19 aptamer (ssDNA)
DNA: TGACACCGTACCTGCTCTGCACTTCCTTCACCAGAAACCTGCACATCTTCGCCGCGTGAAGCACGCCAAGGGACTAT
B2: in data set [1], the Kd turned out to be 112 ± 3.89 nM.

B3: MF MERS aptamer (3WJ of MERSapt-3WJa, MB/3WJb, NH2/3WJc) (structured_DNA)
DNA 1: TGACACCGTACCTGCTCTGCACTTCCTTCACCAGAAACCTGCACATCTTCGCCGCGTGAAGCACGCCAAGGGACTATTTGCCATGTGTATGTGGG
DNA 2: TTTGGGTAGGGCGGGTTGGGCCCACATACTTTGTTGATCC
DNA 3: GGATCAATCATGGCAA
modifications: 5' NH2 on S6
With B3, the binding result in the data set with myoglobin is on record as “no binding”.
